B1: FJ2246MP07H09 (Fab, V domains shown)
VH: EVQLVESGGDLVKPGGSLRLSCVASGFTFRDYAMTWVRQAPGKGLQWVSLINGSGGKTYYADAVKGRFTISRDNAKNTLYLQMNSLRAEDTAVYYCAVDRLTKTIRPQYYGLWSWGQGTLVTVSS
VL: DIVMTQTPLSLSVSPGETASISCRSSQSLLYSIGYNYLDWYLQKPGQSPQGLIYLGSKRASGVPDRFSGSGSGTDFTLRISRVEANDTGVYYCMQGLQSPLTFGQGTKLEIKR
B2: FJ2246MP10B12 (Fab, V domains shown)
VH: EVQLVESGGDLVKPGGSLRLSCVASGFTFRDYAMTWVRQAPGKGLQWVSLISGSGGKTYYADAVKGRFTISRDNAKNTLYLQMNSLRAEDTAVYYCAVDRLTKTIRPQYYGLWVWGQGTLVTVSS
VL: DIVMTQTPLSLSVSPGETASISCRSSQSLLYSIGYNYLDWYLQKPGQSPQGLIYLGSKRASGVPDRFSGSGNGTDFTLRISRVEAEDTGVYYCMQGLHSPLSFGQGTKLEIK
B3: FJ2246MP10F04 (Fab, V domains shown)
VH: EVQLVESGGDLVKPGGSLRLSCVASGFTFRDYAMTWVRQAPGKGLQWVSLISGSGGKTYYADAVKGRFTISRDNAKNTLYLQMNSLRAEDTAVYYCAVDRLTKTIRPQYYGLWVWGQGTLVTVSS
VL: DIVMTQTPLSLSVSPGETASISCRSSKSLLYSIGYNYLDWYLQKPGQSPQGLIYLGSKRASGVPDRFSGSGSGTDFTLRISRVEADDTGVYYCMQGLHSPLTFGQGTKLEIK
B4: FJ2246MP06F01 (Fab, V domains shown)
VH: EVQLVESGGDLVKPGGSLRLSCVASGFTFRDYAMTWVRQAPGKGLQWVSLINGSGTKTYYADAVKGRFTISRDNAKNTLYLQMNSLRAEDTAVYYCAVDRLTKTIRPQYYGLWVWGQGTLVTVSS
VL: DIVMTQTPLSLSVSPGETASISCRSSQSLLYSIGYNYLDWYLQKPGQSPQGLIYLGSKRASGVPDRFSGSGSGTDFTLRISRVEANDTGVYYCMQGLQSPLTFGQGTKLEIKR
B5: FJ2246MP06A09 (Fab, V domains shown)
VH: EVQLVESGGDLVKPGGSLRLSCVASGFTFRDYAMTWVRQAPGKGLQWVSLINGNGSKTYYADAVKGRFTISRDNAKNTLYLQMNSLRAEDTAVYYCAVDRLTKTIRPQYYGLWVWGQGTLVTVSS
VL: DIVMTQTPLSLSVSPGETASISCRSSQSLLYSIGYNYLDWYLQKPGQSPQGLIYLGSKRASGVPDRFSGSGSGTDFTLRISRVEANDTGVYYCMQGLQSPLTFGQGTKLEIKR
B6: FJ2246MP06G08 (Fab, V domains shown)
VH: EVQLVESGGDLVKPGGSLRLSCVASGFTFRDYAMTWVRQAPGKGLQWVSLINGNGSKTYYADAVKGRFTISRDNAKNTLYLQMNSLRAEDTAVYYCAVDRLTKTIRPQYYGLWVWGQGTLVTVSS
VL: DIVMTQTPLSLSVSPGETASISCRSSQSLLYSIGYNYLDWYLQKPGQSPQGLIYLGSKRASGVPDRFSGSGSGTDFTLRISRVEANDTGVYYCMQGLQSPLTFGQGTKLEIKR
B7: FJ2246MP06D01 (Fab, V domains shown)
VH: EVQLVESGGDLVKPGGSLRLSCVASGFPFRDYAMTWVRQAPGKGLQWVSLVNGSGSKTYYADAVKGRFTISRDNAKNTLYLQMNSLRAEDTAVYYCAVDRLTKTIRPQYYGLWVWGQGTLVTVSS
VL: DIVMTQTPLSLSVSPGETASISCRSSQSLLYSIGYNYLDWYLQKPGQSPQGLIYLGSKRASGVPDRFSGSGSGTDFTLRISRVEANDTGVYYCMQGLQSPLTFGQGTKLEIKR
B8: FJ2246MP06D12 (Fab, V domains shown)
VH: EVQLVESGGDLVKPGGSLRLSCVASGFTFRDYAMTWVRQAPGKGLQWVSLINGNSGKTYYADAVKGRFTISRDNAKNTLYLQMNSLRAEDTAVYYCAVDRLTKTIRPQYYGLWVWGQGTLVTVSS
VL: DIVMTQTPLSLSVSPGETASISCRSSQSLLYSIGYNYLDWYLQKPGQSPQGLIYLGSKRASGVPDRFSGSGSGTDFTLRISRVEANDTGVYYCMQGLQSPLTFGQGTKLEIKR
B9: FJ2246MP05F12 (Fab, V domains shown)
VH: EVQLVESGGDLVKPGGSLRLSCVASGFPFRDYAMTWVRQAPGKGLQWVSLINGSGGKTYYADAVKGRFTISRDNAKNTLYLQMNSLRAEDTAVYYCAVDRLTKTIRPQYYGLWVWGQGTLVTVSS
VL: DIVMTQTPLSLSVSPGETASISCRSSQSLLYSIGYNYLDWYLQKPGQSPQGLIYLGSKRASGVPDRFSGSGSGTDFTLRISRVEANDTGVYYCMQGLQSPLTFGQGTKLEIKR
B10: FJ2246MP10A09 (Fab, V domains shown)
VH: EVQLVESGGDLVKPGGSLRLSCVASGFTFRDYAMTWVRQAPGKGLQWVSLISGSGGKTYYADAVKGRFTISRDNAKNTLYLQMNSLRAEDTAVYYCAVDRLTKTIRPQYYGLWVWGQGTLVTVSS
VL: DIVMTQTPLSLSVSPGETASISCRSSQSLLYSIGYNYLDWYLQKPGQSPQGLIYLGSKRASGVPDRFSGSGSGTDFTLRISRVEAEDTGVYYCMQGLHSPLSFGQGTKLEIK
B11: FJ2246MP07A09 (Fab, V domains shown)
VH: EVQLVESGGDLVKPGGSLRLSCVASGFTFRDYAMTWVRQAPGKGLQWVSLINGSGGKTYYADAVKGRFTISRDNAKNTLYLQMNSLRAEDTAVYYCAVDRLTKTIRPQYYGMWSWGQGTLVTVSS
VL: DIVMTQTPLSLSVSPGETASISCRSSQSLLYSIGYNYLDWYLQKPGQSPQGLIYLGSKRASGVPDRFSGSGSGTDFTLRISRVEANDTGVYYCMQGLQSPLTFGQGTKLEIKR
B12: FJ2246MP06H07 (Fab, V domains shown)
VH: EVQLVESGGDLVKPGGSLRLSCVASGFTFRDYAMTWVRQAPGKGLQWVSLINGTGGKTYYADAVKGRFTISRDNAKNTLYLQMNSLRAEDTAVYYCAVDRLTKTIRPQYYGLWAWGQGTLVTVSS
VL: DIVMTQTPLSLSVSPGETASISCRSSQSLLYSIGYNYLDWYLQKPGQSPQGLIYLGSKRASGVPDRFSGSGSGTDFTLRISRVEANDTGVYYCMQGLQSPLTFGQGTKLEIKR
B13: FJ2246MP10H11 (Fab, V domains shown)
VH: EVQLVESGGDLVKPGGSLRLSCVASGFTFRDYAMTWVRQAPGKGLQWVSLISGSGGKTYYADAVKGRFTISRDNAKNTLYLQMNSLRAEDTAVYYCAVDRLTKTIRPQYYGLWVWGQGTLVTVSS
VL: DIVMTQTPLSLSVSPGETASISCRSSQSLLYSIGYNYLDWYLQKPGQSPQGLIYLGSKRASGVPDRFSGSGSGTDFTLRISRVEANDTGVYYCMQGLHSPLSFGQGTKLEIK
B14: FJ2246MP10G07 (Fab, V domains shown)
VH: EVQLVESGGDLVKPGGSLRLSCVASGFTFRDYAMTWVRQAPGKGLQWVSLISGSGGKTYYADAVKGRFTISRDNAKNTLYLQMNSLRAEDTAVYYCAVDRLTKTIRPQYYGLWVWGQGTLVTVSS
VL: DIVMTQTPLSLSVSPGETASISCRSSQSLLYSIGYNYLDWYLQKPGQSPQGLIYLGSKRASGVPDRFSGSGSGTDFTLRISRVEADDTGVYYCMQGLHSPLTFGQGTKLEIK
B15: FJ2246MP07A10 (Fab, V domains shown)
VH: EVQLVESGGDLVKPGGSLRLSCVASGFTFRDYAMTWVRQAPGKGLQWVSLINGSGGKTYYADAVKGRFTISRDNAKNTLYLQMNSLRAEDTAVYYCAVDRLTKTVRPQYYGLWSWGQGTLVTVSS
VL: DIVMTQTPLSLSVSPGETASISCRSSQSLLYSIGYNYLDWYLQKPGQSPQGLIYLGSKRASGVPDRFSGSGSGTDFTLRISRVEANDTGVYYCMQGLQSPLTFGQGTKLEIKR
B16: FJ2246MP06E01 (Fab, V domains shown)
VH: EVQLVESGGDLVKPGGSLRLSCVASGFTFRDYAMTWVRQAPGKGLQWVSLINGSGGKTYYADAVKGRFTISRDNAKNTLYLQMNSLRAEDTAVYYCAVDRLTKTIRPQYYGLWVWGQGTLVTVSS
VL: DIVMTQTPLSLSVSPGETASISCRSSQSLLYSIGYNYLDWYLQKPGQSPQGLIYLGSKRASGVPDRFSGSGSGTDFTLRISRVEANDTGVYYCMQGLQSPLTFGQGTKLEIKR
B17: FJ2246MP06E12 (Fab, V domains shown)
VH: EVQLVESGGDLVKPGGSLRLSCVASGFTFRDYAMTWVRQAPGKGLQWVSLINGNGGKTYYADAVKGRFTISRDNAKNTLYLQMNSLRAEDTAVYYCAVDRLTKTIRPQYYGLWVWGQGTLVTVSS
VL: DIVMTQTPLSLSVSPGETASISCRSSQSLLYSIGYNYLDWYLQKPGQSPQGLIYLGSKRASGVPDRFSGSGSGTDFTLRISRVEANDTGVYYCMQGLQSPLTFGQGTKLEIKR
B18: FJ2246MP06H01 (Fab, V domains shown)
VH: EVQLVESGGDLVKPGGSLRLSCVASGFTFRDYAMTWVRQAPGKGLQWVSLINGDASKTYYADAVKGRFTISRDNAKNTLYLQMNSLRAEDTAVYYCAVDRLTKTIRPQYYGLWVWGQGTLVTVSS
VL: DIVMTQTPLSLSVSPGETASISCRSSQSLLYSIGYNYLDWYLQKPGQSPQGLIYLGSKRASGVPDRFSGSGSGTDFTLRISRVEANDTGVYYCMQGLQSPLTFGQGTKLEIKR

These results are taken from US20250188176A1.

The assay concerns the target canine IL-4RA (construct not given) (canine). The assay is described as follows: SPR, IL-4RA immobilised, periplasmic Fab.
Broadly, the koff is the rate constant with which the complex falls apart. For B1, the Improvement over parental stood at 5.4 fold, the RU max is 509 RU and the koff turned out to be 5.23e-05 s⁻¹.
Taken in the same sequence, the figures for B2 were 3 fold, 304 RU and 9.41e-05 s⁻¹.
In the case of B3, the Improvement over parental was 3.1 fold, the RU max amounted to 292 RU and the koff worked out at 9.16e-05 s⁻¹.
Turning to B4, the Improvement over parental is 2.5 fold, the RU max came out at 199 RU and the off-rate constant (koff) was found to be 0.000112 s⁻¹.
Take B5: the Improvement over parental was determined as 2.6 fold, the RU max turned out to be 152 RU and the off-rate (koff) turned out to be 0.000106 s⁻¹.
With B6, the Improvement over parental is 3.1 fold, the RU max came to 199 RU and the off-rate constant (koff) was 9.01e-05 s⁻¹.
Taken in the same sequence, the figures for B7 were 3.6 fold, 323 RU and 7.72e-05 s⁻¹.
B8: the Improvement over parental was 2.7 fold, the RU max came out at 154 RU and the koff turned out to be 0.000102 s⁻¹.
Taken in the same sequence, the figures for B9 were 3.2 fold, 208 RU and 8.83e-05 s⁻¹.
On to B10, for which the Improvement over parental is 3.1 fold, the RU max came out at 437 RU and the koff came to 8.91e-05 s⁻¹.
For B11, the Improvement over parental came to 4.2 fold, the RU max was 252 RU and the koff was determined as 6.73e-05 s⁻¹.
For B12, the Improvement over parental is 3.7 fold, the RU max stood at 568 RU and the koff worked out at 7.5e-05 s⁻¹.
Take B13: the Improvement over parental turned out to be 2.8 fold, the RU max was 261 RU and the koff stood at 9.9e-05 s⁻¹.
With B14, the Improvement over parental was 2.5 fold, the RU max stood at 372 RU and the off-rate constant (koff) is 0.000111 s⁻¹.
Taken in the same sequence, the figures for B15 were 3.4 fold, 614 RU and 8.18e-05 s⁻¹.
On the same counts, the results for B16 are 2.4 fold, 152 RU and 0.000119 s⁻¹.
For B17, the Improvement over parental turned out to be 2.9 fold, the RU max was determined as 127 RU and the koff worked out at 9.66e-05 s⁻¹.
Taken in the same sequence, the figures for B18 were 2.6 fold, 225 RU and 0.000106 s⁻¹.
